# Data reported in publication PMC3433420.
# Values joined by “and” are separate entries in the source; they are usually repeats but may differ in a detail not shown here. Equal entries are not always repeated. Where two headings read alike, the source gives them in different places.
# Experiments:
# SYK-NC (Homo sapiens) = SYK-NC (Homo sapiens) (UniProt P43405); settings: cited from earlier work
# SHC3 (Homo sapiens) = SHC3 (Homo sapiens) (UniProt Q92529); settings: cited from earlier work
# NCK2 (Homo sapiens) = NCK2 (Homo sapiens) (UniProt O43639); settings: cited from earlier work
# NCK2 (Homo sapiens), sequence (O43639 280-380): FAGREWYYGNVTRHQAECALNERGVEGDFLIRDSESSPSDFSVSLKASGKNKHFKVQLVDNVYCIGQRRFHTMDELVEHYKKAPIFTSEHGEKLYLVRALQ
# SHC1-PTB (Homo sapiens) = SHC1-PTB (Homo sapiens) (UniProt P29353); settings: cited from earlier work
# SHC1-PTB (Homo sapiens), sequence (P29353 483-583): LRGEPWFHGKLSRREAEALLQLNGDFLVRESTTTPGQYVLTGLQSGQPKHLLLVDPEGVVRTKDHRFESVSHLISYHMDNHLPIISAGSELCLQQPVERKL
# VAV2 (Homo sapiens) = VAV2 (Homo sapiens) (UniProt P52735); settings: cited from earlier work
# VAV2 (Homo sapiens), sequence (P52735 668-772): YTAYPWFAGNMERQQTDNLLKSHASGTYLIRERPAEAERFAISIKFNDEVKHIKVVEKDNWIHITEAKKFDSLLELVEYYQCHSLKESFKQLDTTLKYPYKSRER
# GRB7 (Homo sapiens) [1] = target: GRB7 (Homo sapiens) (UniProt Q14451); settings: cited from earlier work
# GRB7 (Homo sapiens), sequence (Q14451 426-532): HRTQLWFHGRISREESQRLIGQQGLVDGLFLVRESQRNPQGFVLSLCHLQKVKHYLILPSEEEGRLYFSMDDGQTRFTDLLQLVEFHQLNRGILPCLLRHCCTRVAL
# ABL2 (Homo sapiens) = ABL2 (Homo sapiens) (UniProt P42684); settings: cited from earlier work
# ABL2 (Homo sapiens), sequence (P42684 168-268): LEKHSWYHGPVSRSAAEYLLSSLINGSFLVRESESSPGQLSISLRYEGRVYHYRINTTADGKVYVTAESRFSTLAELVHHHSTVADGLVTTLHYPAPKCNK
# CRK (Homo sapiens) = CRK (Homo sapiens) (UniProt P46108); settings: cited from earlier work
# CRK (Homo sapiens), sequence (P46108 8-123): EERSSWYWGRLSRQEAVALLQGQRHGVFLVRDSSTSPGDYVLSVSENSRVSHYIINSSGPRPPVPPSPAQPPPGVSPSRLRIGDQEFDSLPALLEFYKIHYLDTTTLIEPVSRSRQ
# SUPT6H (Homo sapiens) = SUPT6H (Homo sapiens) (UniProt Q7KZ85); settings: cited from earlier work
# SUPT6H (Homo sapiens), sequence (Q7KZ85 1320-1436): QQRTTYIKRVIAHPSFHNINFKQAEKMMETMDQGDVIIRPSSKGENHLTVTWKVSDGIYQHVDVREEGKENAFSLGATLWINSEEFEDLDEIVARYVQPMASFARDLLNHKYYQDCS
# SH2D3A (Homo sapiens) = SH2D3A (Homo sapiens) (UniProt Q9BRG2); settings: cited from earlier work
# SH2D3A (Homo sapiens), sequence (Q9BRG2 10-119): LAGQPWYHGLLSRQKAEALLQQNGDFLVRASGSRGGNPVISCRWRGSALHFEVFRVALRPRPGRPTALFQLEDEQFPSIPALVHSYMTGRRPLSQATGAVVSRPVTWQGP
# VAV3 (Homo sapiens) = VAV3 (Homo sapiens) (UniProt Q9UKW4); settings: cited from earlier work
# VAV3 (Homo sapiens), sequence (Q9UKW4 667-771): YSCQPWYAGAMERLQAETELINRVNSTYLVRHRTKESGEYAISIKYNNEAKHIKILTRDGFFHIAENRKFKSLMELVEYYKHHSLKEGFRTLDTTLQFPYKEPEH
# TEC (Homo sapiens) = TEC (Homo sapiens) (UniProt P42680); settings: cited from earlier work
# TEC (Homo sapiens), sequence (P42680 242-350): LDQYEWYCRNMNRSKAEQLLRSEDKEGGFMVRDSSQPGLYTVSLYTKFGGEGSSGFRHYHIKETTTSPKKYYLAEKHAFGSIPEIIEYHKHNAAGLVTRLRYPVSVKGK
# GRB7 (Homo sapiens) [2] = target: GRB7 (Homo sapiens) (UniProt Q14451); settings: cited from earlier work; remark: listed apart in the source
# SH2B2 (Homo sapiens) = SH2B2 (Homo sapiens) (UniProt O14492); settings: cited from earlier work
# SH2B2 (Homo sapiens), sequence (O14492 412-520): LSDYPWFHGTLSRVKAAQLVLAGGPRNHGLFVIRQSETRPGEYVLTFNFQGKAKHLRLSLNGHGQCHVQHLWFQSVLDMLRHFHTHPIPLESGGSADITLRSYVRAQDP
# RASA1-N (Homo sapiens) = RASA1-N (Homo sapiens) (UniProt P20936); settings: cited from earlier work
# RASA1-N (Homo sapiens), sequence (P20936 176-446): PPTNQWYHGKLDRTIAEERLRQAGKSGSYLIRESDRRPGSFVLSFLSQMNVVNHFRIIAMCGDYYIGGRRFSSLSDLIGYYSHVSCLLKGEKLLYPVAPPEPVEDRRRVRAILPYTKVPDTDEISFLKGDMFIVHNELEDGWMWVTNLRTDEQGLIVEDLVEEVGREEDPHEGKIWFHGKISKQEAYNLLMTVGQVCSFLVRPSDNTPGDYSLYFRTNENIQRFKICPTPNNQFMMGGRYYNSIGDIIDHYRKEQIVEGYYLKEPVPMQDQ
# SHF (Homo sapiens) = SHF (Homo sapiens) (UniProt Q7M4L6); settings: cited from earlier work
# SHF (Homo sapiens), sequence (Q7M4L6 318-423): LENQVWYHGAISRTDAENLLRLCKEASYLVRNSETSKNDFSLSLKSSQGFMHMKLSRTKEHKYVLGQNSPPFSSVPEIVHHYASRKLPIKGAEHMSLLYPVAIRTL
# SLA2 (Homo sapiens) = SLA2 (Homo sapiens) (UniProt Q9H6Q3); settings: cited from earlier work
# SLA2 (Homo sapiens), sequence (Q9H6Q3 89-196): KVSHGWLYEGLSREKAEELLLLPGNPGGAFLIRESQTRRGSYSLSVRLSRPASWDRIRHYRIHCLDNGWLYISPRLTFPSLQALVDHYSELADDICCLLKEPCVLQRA
# SOCS6 (Homo sapiens) = SOCS6 (Homo sapiens) (UniProt O14544); settings: cited from earlier work
# SOCS6 (Homo sapiens), sequence (O14544 379-496): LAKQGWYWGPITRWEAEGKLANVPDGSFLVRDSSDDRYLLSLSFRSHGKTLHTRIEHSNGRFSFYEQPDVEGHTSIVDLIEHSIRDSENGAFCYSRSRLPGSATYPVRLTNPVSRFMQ
# PIK3R1-C (Homo sapiens) = PIK3R1-C (Homo sapiens) (UniProt P27986); settings: cited from earlier work
# PIK3R1-C (Homo sapiens), sequence (P27986 328-723): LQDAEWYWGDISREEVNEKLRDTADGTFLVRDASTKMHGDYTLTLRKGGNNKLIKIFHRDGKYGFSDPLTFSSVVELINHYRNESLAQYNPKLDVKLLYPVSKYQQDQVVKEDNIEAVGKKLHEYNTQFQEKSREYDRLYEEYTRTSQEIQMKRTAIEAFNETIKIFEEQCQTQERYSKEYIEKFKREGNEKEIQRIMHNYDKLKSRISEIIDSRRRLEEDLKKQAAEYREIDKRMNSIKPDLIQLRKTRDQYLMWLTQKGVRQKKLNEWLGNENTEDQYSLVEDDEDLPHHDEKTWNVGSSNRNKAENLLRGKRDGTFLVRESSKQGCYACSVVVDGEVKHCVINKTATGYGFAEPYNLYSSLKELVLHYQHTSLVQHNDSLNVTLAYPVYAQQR
# YES1 (Homo sapiens) = YES1 (Homo sapiens) (UniProt P07947); settings: cited from earlier work
# YES1 (Homo sapiens), sequence (P07947 153-260): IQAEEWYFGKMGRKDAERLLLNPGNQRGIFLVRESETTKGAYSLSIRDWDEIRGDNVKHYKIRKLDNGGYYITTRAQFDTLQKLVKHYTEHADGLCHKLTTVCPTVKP
# GRB7 (Homo sapiens) [3] = target: GRB7 (Homo sapiens) (UniProt Q14451); settings: cited from earlier work; remark: listed apart in the source
# ITK (Homo sapiens) = ITK (Homo sapiens) (UniProt Q08881); settings: cited from earlier work
# ITK (Homo sapiens), sequence (Q08881 234-343): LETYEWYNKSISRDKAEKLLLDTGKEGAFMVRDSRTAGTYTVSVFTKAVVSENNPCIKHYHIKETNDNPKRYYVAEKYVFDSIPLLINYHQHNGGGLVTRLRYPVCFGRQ
# PIK3R1-NC (Homo sapiens) = PIK3R1-NC (Homo sapiens) (UniProt P27986); settings: cited from earlier work
# PIK3R1-NC (Homo sapiens), sequence (P27986 328-723): as the sequence (P27986 328-723) above
# PIK3R3-N (Homo sapiens) = PIK3R3-N (Homo sapiens) (UniProt Q92569); settings: cited from earlier work
# SRC (Homo sapiens) = SRC (Homo sapiens) (UniProt P12931); settings: cited from earlier work
# BCAR3 (Homo sapiens) = BCAR3 (Homo sapiens) (UniProt O75815); settings: cited from earlier work
# BCAR3 (Homo sapiens), sequence (O75815 149-258): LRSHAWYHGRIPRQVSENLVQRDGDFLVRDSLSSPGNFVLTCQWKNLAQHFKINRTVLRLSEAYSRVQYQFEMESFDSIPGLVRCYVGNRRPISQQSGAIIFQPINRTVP
# DAPP1 (Homo sapiens) = DAPP1 (Homo sapiens) (UniProt Q9UN19); settings: cited from earlier work
# DAPP1 (Homo sapiens), sequence (Q9UN19 30-134): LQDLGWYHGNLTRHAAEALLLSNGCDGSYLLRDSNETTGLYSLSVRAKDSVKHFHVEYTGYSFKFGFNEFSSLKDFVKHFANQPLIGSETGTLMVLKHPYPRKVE
# PLCG1-C (Homo sapiens) = PLCG1-C (Homo sapiens) (UniProt P19174); settings: cited from earlier work
# PLCG1-C (Homo sapiens), sequence (P19174 545-761): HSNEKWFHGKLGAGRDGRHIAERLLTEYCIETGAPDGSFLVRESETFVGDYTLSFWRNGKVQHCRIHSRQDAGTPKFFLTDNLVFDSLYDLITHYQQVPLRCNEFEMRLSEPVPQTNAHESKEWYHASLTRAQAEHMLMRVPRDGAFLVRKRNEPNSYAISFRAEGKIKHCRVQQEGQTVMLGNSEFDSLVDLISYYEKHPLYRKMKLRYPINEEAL
# SRC SH2 domain (human) = SRC SH2 domain (human) (UniProt P12931); test: peptide or protein array; SH2/PTB proteins spotted on aldehyde slides, rhodamine peptide titrated in buffer B (20 mM HEPES, 100 mM KCl, 0.1% Tween-20, 5 mM DTT, pH 7.8), 1 h at room temperature; replicate assays
# SHC3 (Homo sapiens), sequence (Q92529 494-594): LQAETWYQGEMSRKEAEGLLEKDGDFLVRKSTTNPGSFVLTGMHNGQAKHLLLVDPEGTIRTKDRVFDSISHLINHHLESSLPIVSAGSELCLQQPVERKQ
substance,measurement,setting,value
…pYLIPQQGFd,apparent Kd (screen),SYK-NC (Homo sapiens),0.534 µM
same,apparent Kd (screen),SHC3 (Homo sapiens),0.216 µM
same,apparent Kd (screen),NCK2 (Homo sapiens),2 µM
same,apparent Kd (screen),SHC1-PTB (Homo sapiens),0.628 µM
same,apparent Kd (screen),VAV2 (Homo sapiens),2 µM
…pYLVPQQGF,apparent Kd (screen),GRB7 (Homo sapiens) [1],2 µM
same,apparent Kd (screen),ABL2 (Homo sapiens),2 µM
same,apparent Kd (screen),CRK (Homo sapiens),2 µM
same,apparent Kd (screen),SUPT6H (Homo sapiens),0.912 µM
same,apparent Kd (screen),SH2D3A (Homo sapiens),2 µM
same,apparent Kd (screen),VAV3 (Homo sapiens),2 µM
same,apparent Kd (screen),TEC (Homo sapiens),2 µM
…pYWDQDPPE,apparent Kd (screen),GRB7 (Homo sapiens) [2],2 µM
same,apparent Kd (screen),SH2B2 (Homo sapiens),1.47 µM
same,apparent Kd (screen),RASA1-N (Homo sapiens),0.504 µM
same,apparent Kd (screen),SHF (Homo sapiens),2 µM
same,apparent Kd (screen),SLA2 (Homo sapiens),2 µM
same,apparent Kd (screen),SOCS6 (Homo sapiens),2 µM
same,apparent Kd (screen),PIK3R1-C (Homo sapiens),2 µM
same,apparent Kd (screen),YES1 (Homo sapiens),2 µM
…pYEEMRAFQ,apparent Kd (screen),GRB7 (Homo sapiens) [3],1.52 µM
same,apparent Kd (screen),ITK (Homo sapiens),0.499 µM
same,apparent Kd (screen),PIK3R1-NC (Homo sapiens),0.049 µM
same,apparent Kd (screen),PIK3R3-N (Homo sapiens),0.058 µM
same,apparent Kd (screen),SRC (Homo sapiens),0.999 µM
same,apparent Kd (screen),BCAR3 (Homo sapiens),2 µM
same,apparent Kd (screen),DAPP1 (Homo sapiens),0.999 µM
same,apparent Kd (screen),PLCG1-C (Homo sapiens),0.321 µM
"ErbB4 pY1262 phosphopeptide, rhodamine-labelled, for protein microarrays",Kd,SRC SH2 domain (human),0.403 µM and 2.1 µM
